Non-standard residues stand in square brackets, D forms with d. *: point of attachment. X2 = (tetrahydro-2H-pyran-4-ylmethyl)carbamoyl, O=C(NCC1CCOCC1)*; X7 = (tetrahydro-2H-pyran-4-yl)carbamoyl, O=C(NC1CCOCC1)*; (5-carboxypentyl)carbamoyl = O=C(O)CCCCCNC(=O)*; (2-amino-2-oxoethyl)carbamoyl = NC(=O)CNC(=O)*; (3-Carboxypropyl)carbamoyl = O=C(O)CCCNC(=O)*; (3-carboxypropyl)carbamoyl = O=C(O)CCCNC(=O)*; (carboxymethyl)carbamoyl = O=C(O)CNC(=O)*; Tetrahydropyran4carbonyl = O=C(C1CCOCC1)*; tBuAla = CC(C)(C)C[C@H](N)C(=O)O; 4Pal = N[C@@H](Cc1ccncc1)C(=O)O; dHyp = O=C(O)[C@H]1C[C@H](O)CN1; Cha = N[C@@H](CC1CCCCC1)C(=O)O; Iva = CC[C@](C)(N)C(=O)O; Aib = CC(C)(N)C(=O)O
How the values were obtained:
human Y2 receptor [1] = target: T1, human Y2 receptor (Homo sapiens, UniProt P49146); assay: Receptor Binding Assay (RBA) for Human Y2, [125I]-PYY displacement on hY2R/CHO membrane fraction; details: IC50 of test compound/IC50 of PYY(3-36) (PYY(3-36) taken as 1)
T1 construct: expressed in transfected cells; membrane fraction
T1 sequence (P49146 1-381): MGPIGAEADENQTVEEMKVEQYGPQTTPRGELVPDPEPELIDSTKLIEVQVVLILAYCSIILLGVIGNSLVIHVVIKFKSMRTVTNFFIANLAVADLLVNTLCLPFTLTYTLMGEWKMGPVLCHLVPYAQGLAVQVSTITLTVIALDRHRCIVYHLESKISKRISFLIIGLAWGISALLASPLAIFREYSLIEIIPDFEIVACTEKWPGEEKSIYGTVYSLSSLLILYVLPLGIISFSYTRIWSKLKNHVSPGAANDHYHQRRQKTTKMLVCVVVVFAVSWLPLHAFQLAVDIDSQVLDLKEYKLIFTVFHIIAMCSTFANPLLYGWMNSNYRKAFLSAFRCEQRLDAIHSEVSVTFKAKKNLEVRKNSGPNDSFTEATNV
Outline: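 Read-out is [125I]-PYY displacement from membranes of CHO/dhfr− cells stably transfected with human Y2R. Membranes were obtained by disrupting cells in a buffer of 10 mM NaHCO3, 5 mM EDTA and protease inhibitors.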

human Y2 receptor [2] = target: T1, human Y2 receptor; assay: Human Y2 Receptor G Protein Binding Assay (GBA), [35S]GTPγS; type: biochemical; details: EC50 of test compound/EC50 of PYY(3-36) (PYY3-36 taken as 1), hY2R/CHO membrane fraction
Outline: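 Agonism measured as [35S]GTPγS binding, read by GF/C filtration and scintillation counting after 120 min at room temperature, using human Y2 membranes at 1 μg protein/mL in pH 7.4 Tris/MgCl2/NaCl/GDP buffer. Compound serially diluted 100 μM–1 nM; EC50 normalized to PYY(3-36) (ratio = compound/PYY).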

male C57EL/6J mice = assay: 3-Days Continuous Subcutaneous Administration Test-1 (food intake suppressing activity); type: in vivo, mouse; details: 0.03 mg/kg/day, subcutaneous Alzet pump, food consumption over 3 days; relative to food intake suppression rate for PYY(3-36) (1 mg/kg/day) taken as 100%
Outline: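 Male […] mice, 12-13 weeks, received compound at 0.03 mg/kg/day by subcutaneous osmotic pump (50% DMSO vehicle), housed singly with free food access. Food consumed over 3 days measured; suppression expressed relative to PYY(3-36) (1 mg/kg/day) set as 100%.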

| Substance | RBA IC50 Ratio (human Y2 receptor [1]) | GBA EC50 Ratio (human Y2 receptor [2]) | food intake suppression rate (%) (male C57EL/6J mice) |
| --- | --- | --- | --- |
| (3-Carboxypropyl)carbamoyl-[D-Hyp24, Iva25, Pya(4)26, Cha27,36, Leu(Me)28, Lys30, Aib31]-PYY(23-36) ({(3-Carboxypropyl)carbamoyl}-S[dHyp][Iva][4Pal][Cha][tBuAla]NK[Aib]TRQR[Cha]-NH2; ends and bridges not checked) [compound No. 349] | 0.57 | 1.7 | 52% |
| (Carboxymethyl)carbamoyl-[D-Pro24, Pya(4)26, Cha27,36, Aib28,31, Lys30]-PYY(23-36) ({(carboxymethyl)carbamoyl}-S[dP]R[4Pal][Cha][Aib]NK[Aib]TRQR[Cha]-NH2; ends and bridges not checked) [compound No. 287] | 1.2 | 1.2 | 42% |
| (Tetrahydro-2H-pyran-4-yl)carbamoyl-[D-Pro24, Iva25, Pya(4)26, Cha27,36, Aib28,31, Lys30]-PYY(23-36) (X7-S[dP][Iva][4Pal][Cha][Aib]NK[Aib]TRQR[Cha]-NH2; SMILES CC[C@](C)(NC(=O)[C@H]1CCCN1C(=O)[C@H](CO)NC(=O)NC1CCOCC1)C(=O)N[C@@H](Cc1ccncc1)C(=O)N[C@@H](CC1CCCCC1)C(=O)NC(C)(C)C(=O)N[C@@H](CC(N)=O)C(=O)N[C@@H](CCCCN)C(=O)NC(C)(C)C(=O)N[C@H](C(=O)N[C@@H](CCCNC(=N)N)C(=O)N[C@@H](CCC(N)=O)C(=O)N[C@@H](CCCNC(=N)N)C(=O)N[C@@H](CC1CCCCC1)C(N)=O)[C@@H](C)O) [compound No. 330] | 1.7 | 1.8 | 36% |
| (Tetrahydro-2H-pyran-4-yl)carbonyl-[D-Pro24, Iva25, Pya(4)26, Cha27,36, Aib28,31, Lys30]-PYY(23-36) (Tetrahydropyran4carbonyl-S[dP][Iva][4Pal][Cha][Aib]NK[Aib]TRQR[Cha]-NH2; SMILES CC[C@](C)(NC(=O)[C@H]1CCCN1C(=O)[C@H](CO)NC(=O)C1CCOCC1)C(=O)N[C@@H](Cc1ccncc1)C(=O)N[C@@H](CC1CCCCC1)C(=O)NC(C)(C)C(=O)N[C@@H](CC(N)=O)C(=O)N[C@@H](CCCCN)C(=O)NC(C)(C)C(=O)N[C@H](C(=O)N[C@@H](CCCNC(=N)N)C(=O)N[C@@H](CCC(N)=O)C(=O)N[C@@H](CCCNC(=N)N)C(=O)N[C@@H](CC1CCCCC1)C(N)=O)[C@@H](C)O) [compound No. 342] | 3.3 | 1.9 | 36% |
| (Tetrahydro-2H-pyran-4-ylmethyl)carbamoyl-[D-Pro24, Iva25, Pya(4)26, Cha27,36, Aib28,31, Lys30]-PYY(23-36) (X2-S[dP][Iva][4Pal][Cha][Aib]NK[Aib]TRQR[Cha]-NH2; SMILES CC[C@](C)(NC(=O)[C@H]1CCCN1C(=O)[C@H](CO)NC(=O)NCC1CCOCC1)C(=O)N[C@@H](Cc1ccncc1)C(=O)N[C@@H](CC1CCCCC1)C(=O)NC(C)(C)C(=O)N[C@@H](CC(N)=O)C(=O)N[C@@H](CCCCN)C(=O)NC(C)(C)C(=O)N[C@H](C(=O)N[C@@H](CCCNC(=N)N)C(=O)N[C@@H](CCC(N)=O)C(=O)N[C@@H](CCCNC(=N)N)C(=O)N[C@@H](CC1CCCCC1)C(N)=O)[C@@H](C)O) [compound No. 340] | 1.7 | 1.9 | 27% |

Continued, in another order:

| RBA IC50 Ratio (human Y2 receptor [1]) | GBA EC50 Ratio (human Y2 receptor [2]) | Substance | food intake suppression rate (%) (male C57EL/6J mice) |
| --- | --- | --- | --- |
| 1.2 | 0.74 | (2-amino-2-oxoethyl)carbamoyl-[D-Pro24, Pya(4)26, Cha27,36, Aib28,31, Lys30]-PYY(23-36) ({(2-amino-2-oxoethyl)carbamoyl}-S[dP]R[4Pal][Cha][Aib]NK[Aib]TRQR[Cha]-NH2; SMILES C[C@@H](O)[C@H](NC(=O)C(C)(C)NC(=O)[C@H](CCCCN)NC(=O)[C@H](CC(N)=O)NC(=O)C(C)(C)NC(=O)[C@H](CC1CCCCC1)NC(=O)[C@H](Cc1ccncc1)NC(=O)[C@H](CCCNC(=N)N)NC(=O)[C@H]1CCCN1C(=O)[C@H](CO)NC(=O)NCC(N)=O)C(=O)N[C@@H](CCCNC(=N)N)C(=O)N[C@@H](CCC(N)=O)C(=O)N[C@@H](CCCNC(=N)N)C(=O)N[C@@H](CC1CCCCC1)C(N)=O) [compound No. 292] | 36% |
| 1.6 | 1.9 | (3-Carboxypropyl)carbamoyl-[D-Pro24, Iva25, Pya(4)26, Cha27,36, Aib28,31, Lys30]-PYY(23-36) ({(3-Carboxypropyl)carbamoyl}-S[dP][Iva][4Pal][Cha][Aib]NK[Aib]TRQR[Cha]-NH2; SMILES CC[C@](C)(NC(=O)[C@H]1CCCN1C(=O)[C@H](CO)NC(=O)NCCCC(=O)O)C(=O)N[C@@H](Cc1ccncc1)C(=O)N[C@@H](CC1CCCCC1)C(=O)NC(C)(C)C(=O)N[C@@H](CC(N)=O)C(=O)N[C@@H](CCCCN)C(=O)NC(C)(C)C(=O)N[C@H](C(=O)N[C@@H](CCCNC(=N)N)C(=O)N[C@@H](CCC(N)=O)C(=O)N[C@@H](CCCNC(=N)N)C(=O)N[C@@H](CC1CCCCC1)C(N)=O)[C@@H](C)O) [compound No. 328] | 75% |
| 1.2 | 0.97 | (3-carboxypropyl)carbamoyl-[D-Pro24, Pya(4)26, Cha27,36, Aib28,31, Lys30]-PYY(23-36) ({(3-carboxypropyl)carbamoyl}-S[dP]R[4Pal][Cha][Aib]NK[Aib]TRQR[Cha]-NH2; SMILES C[C@@H](O)[C@H](NC(=O)C(C)(C)NC(=O)[C@H](CCCCN)NC(=O)[C@H](CC(N)=O)NC(=O)C(C)(C)NC(=O)[C@H](CC1CCCCC1)NC(=O)[C@H](Cc1ccncc1)NC(=O)[C@H](CCCNC(=N)N)NC(=O)[C@H]1CCCN1C(=O)[C@H](CO)NC(=O)NCCCC(=O)O)C(=O)N[C@@H](CCCNC(=N)N)C(=O)N[C@@H](CCC(N)=O)C(=O)N[C@@H](CCCNC(=N)N)C(=O)N[C@@H](CC1CCCCC1)C(N)=O) [compound No. 293] | 51% |
| 1.2 | 1.5 | (5-carboxypentyl)carbamoyl-[D-Pro24, Pya(4)26, Cha27,36, Aib28,31, Lys30]-PYY(23-36) ({(5-carboxypentyl)carbamoyl}-S[dP]R[4Pal][Cha][Aib]NK[Aib]TRQR[Cha]-NH2; SMILES C[C@@H](O)[C@H](NC(=O)C(C)(C)NC(=O)[C@H](CCCCN)NC(=O)[C@H](CC(N)=O)NC(=O)C(C)(C)NC(=O)[C@H](CC1CCCCC1)NC(=O)[C@H](Cc1ccncc1)NC(=O)[C@H](CCCNC(=N)N)NC(=O)[C@H]1CCCN1C(=O)[C@H](CO)NC(=O)NCCCCCC(=O)O)C(=O)N[C@@H](CCCNC(=N)N)C(=O)N[C@@H](CCC(N)=O)C(=O)N[C@@H](CCCNC(=N)N)C(=O)N[C@@H](CC1CCCCC1)C(N)=O) [compound No. 294] | 45% |
| 3.0 | 1.6 | (Carboxymethyl)carbamoyl-[D-Pro24, Iva25, Pya(4)26, Cha27,36, Aib28,31, Lys30]-PYY(23-36) ({(carboxymethyl)carbamoyl}-S[dP][Iva][4Pal][Cha][Aib]NK[Aib]TRQR[Cha]-NH2; SMILES CC[C@](C)(NC(=O)[C@H]1CCCN1C(=O)[C@H](CO)NC(=O)NCC(=O)O)C(=O)N[C@@H](Cc1ccncc1)C(=O)N[C@@H](CC1CCCCC1)C(=O)NC(C)(C)C(=O)N[C@@H](CC(N)=O)C(=O)N[C@@H](CCCCN)C(=O)NC(C)(C)C(=O)N[C@H](C(=O)N[C@@H](CCCNC(=N)N)C(=O)N[C@@H](CCC(N)=O)C(=O)N[C@@H](CCCNC(=N)N)C(=O)N[C@@H](CC1CCCCC1)C(N)=O)[C@@H](C)O) [compound No. 327] | 58% |
| 1.1 | 0.71 | (Tetrahydro-2H-pyran-4-yl)carbonyl-[D-Pro24, Pya(4)26, Cha27,36, Aib28,31, Lys30]-PYY(23-36) (Tetrahydropyran4carbonyl-S[dP]R[4Pal][Cha][Aib]NK[Aib]TRQR[Cha]-NH2; SMILES C[C@@H](O)[C@H](NC(=O)C(C)(C)NC(=O)[C@H](CCCCN)NC(=O)[C@H](CC(N)=O)NC(=O)C(C)(C)NC(=O)[C@H](CC1CCCCC1)NC(=O)[C@H](Cc1ccncc1)NC(=O)[C@H](CCCNC(=N)N)NC(=O)[C@H]1CCCN1C(=O)[C@H](CO)NC(=O)C1CCOCC1)C(=O)N[C@@H](CCCNC(=N)N)C(=O)N[C@@H](CCC(N)=O)C(=O)N[C@@H](CCCNC(=N)N)C(=O)N[C@@H](CC1CCCCC1)C(N)=O) [compound No. 324] | 42% |

Reference: patent US9260500B2, “Peptide and use thereof” (Takeda Pharmaceutical Company Limited, priority 2009, dated 2016)
